B1: Twister Ribozyme (parent)
chain: AACACUGCCAAUGCCGGUCCCAAGCCCGGAUAAAAGUGGAGGGGGCGG

Variants of: B1
Assay: self-cleavage, relative activity (ratio to wild type); higher = more cleavage; co-transcriptional

Row | Variant | self-cleavage
1 | AACGCUGCCAAUGCGGGUCCCAAGCCCGGAUAAAAGUGGAGGGGGCGG [A4G C15G] | 0.0751
2 | AACACUGCCAGUGCCGGUCCCAAGCCCGGAUAAAAGUGGAGUGGGCGG [A11G G42U] | 0.411
3 | AACACUGCGAAUGCCGGUCCCAAGCCCGGUUAAAAGUGGAGGGGGCGG [C9G A30U] | 0.62
4 | AACACUGCCAAUGCCGGUCCCAAUCACGGAUAAAAGUGGAGGGGGCGG [G24U C26A] | 0.0928
5 | AACACUCCCAAUGCCGGUCCCAAGCCCGGAUAAAAGCGGAGGGGGCGG [G7C U37C] | 0.0652
6 | AACACUGCCAAUGCCGGUCCUAAGCCCGGAUAAACGUGGAGGGGGCGG [C21U A35C] | 0.154
7 | AACACUGCCAAUGCCGGUCCCUAGCCCGGGUAAAAGUGGAGGGGGCGG [A22U A30G] | 0.783
8 | AACAGUGCCAAUGCCGGUCCCAAGCCCGUAUAAAAGUGGAGGGGGCGG [C5G G29U] | 0.584
9 | AACACUGCCAAUGCCUGUCCCAAGCCCGGAUAAAAGUUGAGGGGGCGG [G16U G38U] | 0.914
10 | AACACUGCCAAUGCCGGUCCCAAGCGCGGAUAAAUGUGGAGGGGGCGG [C26G A35U] | 0.497
11 | AACACUGCCAAUGCCGGUCCCAAGCCCGGAGAGAAGUGGAGGGGGCGG [U31G A33G] | 1.02
12 | AACACUGCAAAUGCCGGUCCCAAGCCGGGAUAAAAGUGGAGGGGGCGG [C9A C27G] | 0.0551
13 | AACACUGCCAAUGACGGUCCCAAGGCCGGAUAAAAGUGGAGGGGGCGG [C14A C25G] | 0.657
14 | AAUACUGCCAAUGCCGGUCCCAAACCCGGAUAAAAGUGGAGGGGGCGG [C3U G24A] | 0.0721
15 | AACACUGCCAAUGCCGGUCUCAAGACCGGAUAAAAGUGGAGGGGGCGG [C20U C25A] | 0.078
16 | AACACUGCCAAUGCCGGUCCCAAGCCCGGAUAAAAGUGGUGGUGGCGG [A40U G43U] | 0.0936
17 | AAAACUGCCAAUGCCGGUCCGAAGCCCGGAUAAAAGUGGAGGGGGCGG [C3A C21G] | 0.0514
18 | AACACUUCCAAUGCCGGUCCCAAGCCCGGAUAAAAGUGGAGGGGUCGG [G7U G45U] | 0.087
19 | AACACUGCCAAUGCCGGUCCCAACCCCGGAUAAAAGUGGAGGGGGCGA [G24C G48A] | 0.0988
20 | AACACCGCCAAUGCCGGUCCCAAGCGCGGAUAAAAGUGGAGGGGGCGG [U6C C26G] | 0.125
21 | AACACUGCCAAUGGCGCUCCCAAGCCCGGAUAAAAGUGGAGGGGGCGG [C14G G17C] | 0.124
22 | AAGACUGCCAAUGCAGGUCCCAAGCCCGGAUAAAAGUGGAGGGGGCGG [C3G C15A] | 0.161
23 | AACACUGCCAAUGCCGGUCCCAAGCCCGGAUAAAAGUGGAGGCGGCGG [G43C] | 0.227
24 | AACACUGCCAAUGCCGCUCCCAAGCCCGGAUAAAAGUGGUGGGGGCGG [G17C A40U] | 0.0929
25 | AACACUGCCAAUGCCGGUACCAAGCCCGCAUAAAAGUGGAGGGGGCGG [C19A G29C] | 0.0998
26 | AACACUGCCAAUGCCGGUCCCAAGCCCGGAUAAUAGUGGAGGGGGCGG [A34U] | 0.915
27 | AACUCUGCUAAUGCCGGUCCCAAGCCCGGAUAAAAGUGGAGGGGGCGG [A4U C9U] | 0.0756

Row | Variant | self-cleavage
28 | AACACUGCCAAUGCCGGUCCCAAGCCCGGAAAAAAGUGGACGGGGCGG [U31A G41C] | 0.266
29 | AACACUGCCAAUGCAGGUCCCAACCCCGGAUAAAAGUGGAGGGGGCGG [C15A G24C] | 0.0841
30 | AACACUGCCAAUGCGGGUCCCAAGCCCGGAUAAAAGUGGAGGGGGCGU [C15G G48U] | 0.0875
31 | AACACUGCCAAUGCCGGUCCCACGCCCGGAUAAAAGUGGAGGGGGCGC [A23C G48C] | 0.211
32 | AACACUGCCAAUGCCGGUCCCAAGCCCGGAUAUAAGUGGAGGGGGCUG [A33U G47U] | 0.81
33 | AACACUGCCAAUGCGGGUCCCAAGCCCGGAUAACAGUGGAGGGGGCGG [C15G A34C] | 0.0577
34 | AACACUGCCAAUGCCGGUCCCAAGCCCGGACAAAAGUUGAGGGGGCGG [U31C G38U] | 0.904
35 | AACACUGCCAAUGCCGGUCCCAAGCCCGGUUAAAAGUGGAGGGGGCCG [A30U G47C] | 0.669
36 | AACACUGCCAAUGCCCGUCCGAAGCCCGGAUAAAAGUGGAGGGGGCGG [G16C C21G] | 0.0586
37 | AACACUGCCAAUGCCGGUCCCAAGCCCGGAUAAUAGUGGAGGGAGCGG [A34U G44A] | 0.893
38 | AACACUGCCAAAGCCGGUCCCAAGCCCGGAUAAAAGUGGAGGGGGCAG [U12A G47A] | 1.13
39 | AACACUGCCAAUGCCGGUCCAAGGCCCGGAUAAAAGUGGAGGGGGCGG [C21A A23G] | 0.0801
40 | AACACUGCCAAUGCCGGUCCCAAGCCCGGAUAAAAUUGGAGGUGGCGG [G36U G43U] | 0.15
41 | AAUACUGCCAAUGCCGGUCCCAAGCCCUGAUAAAAGUGGAGGGGGCGG [C3U G28U] | 0.325
42 | AACACUGCCAAUGCCGGUCUCAAGCCCGGAAAAAAGUGGAGGGGGCGG [C20U U31A] | 0.68
43 | AACACUGCCAAUGCCGGUCCCAAGCCCGGAUAAAUGUGGAAGGGGCGG [A35U G41A] | 0.678
44 | AACACUGCUAAUGCCGGUCCCAAGCCCGGAUAAAAGUGGAGCGGGCGG [C9U G42C] | 0.193
45 | AACACUGCCACUGCCGGUCCCAAGCCCGGAUAAAAGUGGAGGGGGCGU [A11C G48U] | 1.06
46 | AACACUGCCAAUGCCGGUCCCUAACCCGGAUAAAAGUGGAGGGGGCGG [A22U G24A] | 0.0776
47 | AACACUGCCAAUGCCGGUCCCACGCCCGGAUAAAAGUGUAGGGGGCGG [A23C G39U] | 0.0921
48 | AACACUGCCAAUGCCGGUCCCAAGCCCGGAUAAAAGUGUAGGGAGCGG [G39U G44A] | 0.15
49 | AACACUGCCAAUGCCGGUCCCAAGCACGGAUAAAAGUGGAUGGGGCGG [C26A G41U] | 0.154
50 | AACACUGCCAAUGCCGGUCCCAAGCCCGGAUAAAAGUCGAGGGAGCGG [G38C G44A] | 0.826
51 | AACACUGCCAAUGCCGGACCCAAGCCCGGAUAAAAGUGGAGGGGGCGG [U18A] | 0.667
52 | ACCACUGCCAAUGCCGGUCCCAAGCCCGGAUAAAAGUGGGGGGGGCGG [A2C A40G] | 0.059
53 | AAGACUGCCAAUGCCGGUCCCAAGCCCGCAUAAAAGUGGAGGGGGCGG [C3G G29C] | 0.236
54 | AACACUGCCAAUGCCGGUCCCAAGCCCGGAUAAACGUGAAGGGGGCGG [A35C G39A] | 0.221
